Where two headings read alike, the source gives them in different places.
Columns and labels:
[1] = biological target: HLA-A*1101 (purified HLA class I molecule) (human)
HLA-B*0702 (human) [2] = experiment: competition with 125I-labeled standard peptide for purified HLA, gel filtration
HLA-A*1101 (human) [3] = experiment: competition with 125I-labelled standard peptide for purified HLA-A*1101, gel filtration
HLA-A*0101 (human) [4] = experiment: competition with 125I-labelled standard peptide for purified HLA-A*0101, gel filtration
HLA-B*5101 (human) [5] = experiment: competition with 125I-labelled standard peptide for purified HLA, gel filtration
HLA-B*0702 (human) [6] = experiment: as above
HLA-B*3501 (human) [7] = experiment: as above
HLA-B*5301 (human) [8] = experiment: as above
HLA-B*5401 (human) = experiment: as above
HLA-A*1101 (human) [9] = experiment: inhibition of 125I-labeled standard peptide binding to purified HLA, gel filtration
HLA-A*0301 (human) [10] = experiment: as above
HLA-A*0101 (human) [11] = experiment: competition with 125I-labelled standard peptide 944.02 ([..]) for purified HLA-A*0101, gel filtration
HLA-A*0301 (human) [12] = experiment: competitive inhibition of 125I-labelled standard peptide binding to purified HLA-A*0301, gel filtration; conditions: remark: other sources report otherwise
HLA-A*2402 (human) [13] = experiment: competition with 125I-labelled standard probe peptide for purified HLA-A*2402, gel filtration
HLA-B*5101 (human) [14] = experiment: competition with 125I-labeled standard probe peptide for purified HLA, gel filtration
HLA-B*0702 (human) [15] = experiment: as above
HLA-B*3501 (human) [16] = experiment: as above
HLA-B*5301 (human) [17] = experiment: as above
HLA-A*1101 (human) [18] = experiment: competition with 125I-labelled standard probe peptide for purified HLA-A*1101, gel filtration
HLA-A*2402 (human) [19] = experiment: competition with 125I-labelled standard peptide for purified HLA-A*2402, gel filtration
HLA-A*0301 (human) [20] = experiment: competition with 125I-labeled standard peptide for purified HLA-A*0301, gel filtration
[21] = remark: other sources report otherwise

In the case of RFHNIAGHYR (modifications not checked) [HPV18 E6 126-135 peptide …], the relative binding ratio (IC50 of standard peptide / IC50 of test peptide) [1] is reported as 0.0057.

Work on LPQLCTEL (modifications not checked) [HPV16 E6 19 LPQLCTEL] yielded a binding affinity ratio (IC50 of standard peptide / IC50 of test peptide) (HLA-B*0702 (human) [2]) of 0.0055.

ETTDLYCY (modifications not checked) [ETTDLYCY (HPV16 E7, position 18, 8 amino acids)] showed a relative binding ratio (IC50 of standard peptide / IC50 of test peptide) (HLA-A*1101 (human) [3]; [21]) of 0.0001 and a relative binding ratio (IC50 of standard peptide / IC50 of test peptide) (HLA-A*0101 (human) [4]; [21]) of 0.078.

In the case of QPETTDLY (modifications not checked) [QPETTDLY (HPV16 E7, position 16, 8 amino acids)], the relative binding ratio (IC50 of standard peptide / IC50 of test peptide) (HLA-A*0101 (human) [4]) is reported as 0.001.

For GPKATLQDIV (modifications not checked) [HPV18 E7 peptide … (position 3, 10 amino acids)], the binding affinity ratio (IC50 of standard peptide / IC50 of test peptide) (HLA-B*5101 (human) [5]) was 0.0001, the binding affinity ratio (IC50 of standard peptide / IC50 of test peptide) (HLA-B*0702 (human) [6]) was 0.0001 and the binding affinity ratio (IC50 of standard peptide / IC50 of test peptide) (HLA-B*3501 (human) [7]) was 0.0001. It also gave a binding affinity ratio (IC50 of standard peptide / IC50 of test peptide) (HLA-B*5301 (human) [8]) of 0.0001 and a binding affinity ratio (IC50 of standard peptide / IC50 of test peptide) (HLA-B*5401 (human)) of 0.0001.

In the case of PPKLRSTAA (modifications not checked) [HPV16 E1 309 …], the binding affinity ratio (IC50 of standard peptide / IC50 of test peptide) (HLA-B*0702 (human) [2]) is reported as 0.0014.

In the case of LSLHEDEDK (modifications not checked) [HPV16 E1 peptide … (position 620, 9 amino acids)], the binding affinity ratio (IC50 of standard peptide / IC50 of test peptide) (HLA-A*1101 (human) [9]) is reported as 0.0002 and the binding affinity ratio (IC50 of standard peptide / IC50 of test peptide) (HLA-A*0301 (human) [10]) is reported as 0.0005.

Binder ETTDLYCY (modifications not checked) [HPV16 E7 18 ETTDLYCY] has a binding affinity ratio (IC50 of standard peptide / IC50 of test peptide) (HLA-A*0101 (human) [11]; [21]) of 0.078, a relative binding ratio (IC50 of standard peptide / IC50 of test peptide) (ratio to standard peptide) (HLA-A*0301 (human) [12]) of 0.0002 and a relative binding ratio (IC50 of standard peptide / IC50 of test peptide) (HLA-A*2402 (human) [13]; [21]) of 0.0001.

With SVYGDTLEK (modifications not checked) [HPV18 E6 84-92 peptide …] the relative binding ratio (IC50 of standard peptide / IC50 of test peptide) [1] was 0.23.

VVYRDSIPH (modifications not checked) [HPV18 E6 54-62 peptide …] was tested, and the relative binding ratio (IC50 of standard peptide / IC50 of test peptide) [1] was 0.38.

TGLYNLLIR (modifications not checked) [HPV18 E6 96-104 peptide …] showed a relative binding ratio (IC50 of standard peptide / IC50 of test peptide) [1] of 0.0002.

With DTPTLHEY (modifications not checked) [DTPTLHEY (HPV16 E7, position 4, 8 amino acids)] the relative binding ratio (IC50 of standard peptide / IC50 of test peptide) (HLA-A*0101 (human) [4]) was 0.0002.

In the case of GTTLEQQY (modifications not checked) [GTTLEQQY (HPV16 E6, position 92, 8 amino acids)], the relative binding ratio (IC50 of standard peptide / IC50 of test peptide) (HLA-A*0101 (human) [4]) is reported as 0.0006.

In the case of CIVYRDGNPY (modifications not checked) [HPV16 E6 58 …], the binding affinity ratio (IC50 of standard peptide / IC50 of test peptide) (HLA-A*0101 (human) [11]) is reported as 0.0015.

GTTLEQQY (modifications not checked) [HPV16 E6 92 GTTLEQQY] was tested, and the binding affinity ratio (IC50 of standard peptide / IC50 of test peptide) (HLA-A*0101 (human) [11]) was 0.0006.

AVCDKCLKFY (modifications not checked) [HPV16 E6 68 …] was tested, and the binding affinity ratio (IC50 of standard peptide / IC50 of test peptide) (HLA-A*0101 (human) [11]) was 0.0095.

GMVVLLLVR (modifications not checked) [HPV16 E1 peptide … (position 272, 9 amino acids)] gave a binding affinity ratio (IC50 of standard peptide / IC50 of test peptide) (HLA-A*1101 (human) [9]) of 0.0082 and a binding affinity ratio (IC50 of standard peptide / IC50 of test peptide) (HLA-A*0301 (human) [10]) of 0.0036.

In the case of SPRLQEISL (modifications not checked) [HPV18 E1 110 peptide …], the binding affinity ratio (IC50 of standard peptide / IC50 of test peptide) (HLA-B*5101 (human) [14]) is reported as 0.0005, the binding affinity ratio (IC50 of standard peptide / IC50 of test peptide) (HLA-B*0702 (human) [15]) is reported as 0.62 and the binding affinity ratio (IC50 of standard peptide / IC50 of test peptide) (HLA-B*3501 (human) [16]) is reported as 0.0008. For the same binder, the binding affinity ratio (IC50 of standard peptide / IC50 of test peptide) (HLA-B*5301 (human) [17]) was 0.0002.

IVYRDGNPY (modifications not checked) [HPV16 E6 59 …] was tested, and the binding affinity ratio (IC50 of standard peptide / IC50 of test peptide) (HLA-A*0101 (human) [11]; [21]) was 0.0018 and the relative binding ratio (IC50 of standard peptide / IC50 of test peptide) (HLA-A*2402 (human) [13]; [21]) was 0.0001.

In the case of DTPTLHEY (modifications not checked) [HPV16 E7 4 DTPTLHEY], the binding affinity ratio (IC50 of standard peptide / IC50 of test peptide) (HLA-A*0101 (human) [11]) is reported as 0.0002.

NIHPAKDNR (modifications not checked) [HPV18 E1 574 …] gave a binding affinity ratio (IC50 of standard peptide / IC50 of test peptide) (HLA-A*1101 (human) [18]) of 0.0002.

PYAVCDKCLKF (modifications not checked) [HPV16 E6 66 …] gave a relative binding ratio (IC50 of standard peptide / IC50 of test peptide) (ratio to standard peptide) (HLA-A*2402 (human) [19]) of 0.11 and a relative binding ratio (IC50 of standard peptide / IC50 of test peptide) (HLA-A*2402 (human) [13]) of 0.11.

EGTGCNGWFY (modifications not checked) [HPV18 E1 10-19 peptide …] gave a relative binding ratio (IC50 of standard peptide / IC50 of test peptide) (HLA-A*1101 (human) [18]) of 0.0002.

In the case of RFHNIAGHY (modifications not checked) [HPV18 E6 126-134 peptide …], the relative binding ratio (IC50 of standard peptide / IC50 of test peptide) [1] is reported as 0.0002.

Binder AICIEKQSR (modifications not checked) [HPV16 E1 peptide … (position 112, 9 amino acids)] has a relative binding ratio (IC50 of standard peptide / IC50 of test peptide) (ratio to standard peptide) (HLA-A*0301 (human) [20]) of 0.001, a binding affinity ratio (IC50 of standard peptide / IC50 of test peptide) (HLA-A*1101 (human) [9]) of 0.0057 and a binding affinity ratio (IC50 of standard peptide / IC50 of test peptide) (HLA-A*0301 (human) [10]) of 0.001.

With LTNILNVLK (modifications not checked) [HPV16 E1 peptide … (position 191, 9 amino acids)] the binding affinity ratio (IC50 of standard peptide / IC50 of test peptide) (HLA-A*1101 (human) [9]) was 0.42 and the binding affinity ratio (IC50 of standard peptide / IC50 of test peptide) (HLA-A*0301 (human) [10]) was 0.0086.

In the case of NTGLYNLLIR (modifications not checked) [HPV18 E6 95-104 peptide …], the relative binding ratio (IC50 of standard peptide / IC50 of test peptide) [1] is reported as 0.0013.

In the case of VCDKCLKFY (modifications not checked) [… (HPV16 E6, position 69, 9 amino acids)], the relative binding ratio (IC50 of standard peptide / IC50 of test peptide) (HLA-A*1101 (human) [3]) is reported as 0.0002 and the relative binding ratio (IC50 of standard peptide / IC50 of test peptide) (HLA-A*0101 (human) [4]) is reported as 0.0017.

LTTNIHPAK (modifications not checked) [HPV18 E1 571 …] gave a binding affinity ratio (IC50 of standard peptide / IC50 of test peptide) (HLA-A*1101 (human) [18]) of 0.12.

Binder DLQPETTDLY (modifications not checked) [HPV16 E7 14 …] has a binding affinity ratio (IC50 of standard peptide / IC50 of test peptide) (HLA-A*0101 (human) [11]; [21]) of 0.002 and a relative binding ratio (IC50 of standard peptide / IC50 of test peptide) (ratio to standard peptide) (HLA-A*0301 (human) [12]) of 0.0002.

Work on LILALLRYK (modifications not checked) [HPV18 E1 281 …] yielded a binding affinity ratio (IC50 of standard peptide / IC50 of test peptide) (HLA-A*1101 (human) [18]) of 0.18.

LTEVFEFAFK (modifications not checked) [HPV18 E6 41-50 peptide …] gave a relative binding ratio (IC50 of standard peptide / IC50 of test peptide) [1] of 0.036.

With QAEPDRAHY (modifications not checked) [… (HPV16 E7, position 44, 9 amino acids)] the relative binding ratio (IC50 of standard peptide / IC50 of test peptide) (HLA-A*1101 (human) [3]) was 0.0002 and the relative binding ratio (IC50 of standard peptide / IC50 of test peptide) (HLA-A*0101 (human) [4]) was 0.021.

With QYNKPLCDLL (modifications not checked) the relative binding ratio (IC50 of standard peptide / IC50 of test peptide) (ratio to standard peptide) (HLA-A*2402 (human) [19]) was 0.0015 and the relative binding ratio (IC50 of standard peptide / IC50 of test peptide) (HLA-A*2402 (human) [13]) was 0.0015.

HGDTPTLHEY (modifications not checked) [… (HPV16 E7, position 2, 10 amino acids)] gave a relative binding ratio (IC50 of standard peptide / IC50 of test peptide) (HLA-A*1101 (human) [3]; [21]) of 0.0001 and a relative binding ratio (IC50 of standard peptide / IC50 of test peptide) (HLA-A*0101 (human) [4]; [21]) of 0.003.

With QYNKPLCDL (modifications not checked) the relative binding ratio (IC50 of standard peptide / IC50 of test peptide) (ratio to standard peptide) (HLA-A*2402 (human) [19]) was 0.0001 and the relative binding ratio (IC50 of standard peptide / IC50 of test peptide) (HLA-A*2402 (human) [13]) was 0.0001.

Binder KAAMLAKFK (modifications not checked) [HPV16 E1 peptide … (position 204, 9 amino acids)] has a binding affinity ratio (IC50 of standard peptide / IC50 of test peptide) (HLA-A*1101 (human) [9]) of 0.18 and a binding affinity ratio (IC50 of standard peptide / IC50 of test peptide) (HLA-A*0301 (human) [10]) of 0.11.

In the case of NSGQKKAKR (modifications not checked) [HPV18 E1 119 …], the binding affinity ratio (IC50 of standard peptide / IC50 of test peptide) (HLA-A*1101 (human) [18]) is reported as 0.0002.

Reference: patent US7026443
